One block for each binder: values may come before it.
Experiments:
[1] = target: T1, LILRB1 (human, UniProt Q8NHL6 24-458, limits assumed); test: cross-reactivity test on the LILRBs (ELISA per paragraph 433)
T1 construct: also called leukocyte immunoglobulin-like receptor subfamily B member 1

[2] = target: T2, D2-SR-Fc; test: ELISA, mAb titrated
T2 construct: also called D2-SR-WT

[3] = target: T3, SR; test: matrix of binding to LILRB4 domain-Fc fusions (FIG. 47); ELISA per paragraph 433
T3 construct: also called LILRB4 SR-hIgG1-Fc; stalk region of LILRB4 as Fc fusion

[4] = target: T4, LILRB4 D1 (first Ig-like domain) Fc fusion protein (human, UniProt Q8NHJ6 27-118); test: as above
T4 construct: also called D1 of LILRB4; not shown: Fc part

[5] = target: T5, D2; test: as above
T5 construct: also called LILRB4 D2-hIgG1-Fc; second Ig-like domain of LILRB4 as Fc fusion

[6] = target: D2-SR-M16(210-259); test: ELISA, mAb 139 titrated
[7] = target: T6, LILRB5 (human, UniProt O75023 24-458, limits assumed); test: cross-reactivity ELISA (FIG. 46)
[8] = target: T7, LILRB3 (human, UniProt O75022 24-443, limits assumed); test: cross-reactivity ELISA (FIG. 46)
T7 construct: also called leukocyte immunoglobulin-like receptor subfamily B member 3

[9] = target: T8, human LILRB4 (human, UniProt Q8NHJ6 22-259, limits assumed); test: ELISA, OD450 against antibody concentration
T8 construct: also called leukocyte immunoglobulin-like receptor subfamily B member 4

[10] = target: T8, human LILRB4; test: ELISA
[11] = target: T6, LILRB5; test: cross-reactivity test on the LILRBs (ELISA per paragraph 433)
[12] = target: T7, LILRB3; test: as above
[13] = target: T9, LILRB2 (human, UniProt Q8N423 22-458, limits assumed); test: as above
T9 construct: also called leukocyte immunoglobulin-like receptor subfamily B member 2

[14] = target: T8, human LILRB4; test: ELISA, OD450 against antibody concentration; remark: listed apart in the source
[15] = target: T2, D2-SR-Fc; test: ELISA, mAb titrated on D2-SR-wt(119-259)
[16] = target: D2-SR-M1(139-259); test: ELISA, mAb titrated on D2-SR-M1(139-259)
[17] = target: T10, D2-SR-M2(139-235); test: ELISA, mAb 8 titrated
T10 chain: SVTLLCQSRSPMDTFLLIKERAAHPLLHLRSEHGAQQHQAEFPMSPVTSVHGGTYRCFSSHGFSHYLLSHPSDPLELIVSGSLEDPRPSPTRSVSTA

[18] = target: D2-SR-M15(139-219); test: ELISA, mAb 8 titrated
[19] = target: T8, human LILRB4; test: ELISA, OD450 against antibody concentration; remark: listed apart in the source
[20] = target: T10, D2-SR-M2(139-235); test: ELISA, mAb 216-2 titrated
[21] = target: D2-SR-M15(139-219); test: ELISA, mAb 216-2 titrated
[22] = target: T1, LILRB1; test: cross-reactivity ELISA (FIG. 46)
[23] = target: T8, human LILRB4; test: ELISA, OD450 against antibody concentration; remark: listed apart in the source
[24] = target: T8, human LILRB4; test: ELISA, OD450 against antibody concentration; remark: listed apart in the source
[25] = target: T8, human LILRB4; test: ELISA, mAb titrated on the WT protein of the LILRB4 mutant series of FIG. 52 (construct limits not stated)
[26] = target: T4, LILRB4 D1 (first Ig-like domain) Fc …; test: ELISA, mAb titrated
[27] = target: T11, LILRB4-ECD-Fc (human, UniProt Q8NHJ6 27-259); test: ELISA, mAb titrated
T11 construct: also called LILRB4-Fc; LILRB4 ECD-Fc fusion protein; not shown: Fc part

[28] = target: T6, LILRB5; test: reactivity table, assay not named on the sheet
[29] = target: T7, LILRB3; test: reactivity table, assay not named on the sheet
[30] = target: T8, human LILRB4; test: reactivity table, assay not named on the sheet
[31] = target: T9, LILRB2; test: flow cytometry on LILRB2-overexpressing 293T cells, mAb at 2 ug/ml
[32] = target: T8, human LILRB4; test: ELISA, OD450 against antibody concentration; remark: listed apart in the source

T9 sequence (Q8N423 22-458 limits assumed): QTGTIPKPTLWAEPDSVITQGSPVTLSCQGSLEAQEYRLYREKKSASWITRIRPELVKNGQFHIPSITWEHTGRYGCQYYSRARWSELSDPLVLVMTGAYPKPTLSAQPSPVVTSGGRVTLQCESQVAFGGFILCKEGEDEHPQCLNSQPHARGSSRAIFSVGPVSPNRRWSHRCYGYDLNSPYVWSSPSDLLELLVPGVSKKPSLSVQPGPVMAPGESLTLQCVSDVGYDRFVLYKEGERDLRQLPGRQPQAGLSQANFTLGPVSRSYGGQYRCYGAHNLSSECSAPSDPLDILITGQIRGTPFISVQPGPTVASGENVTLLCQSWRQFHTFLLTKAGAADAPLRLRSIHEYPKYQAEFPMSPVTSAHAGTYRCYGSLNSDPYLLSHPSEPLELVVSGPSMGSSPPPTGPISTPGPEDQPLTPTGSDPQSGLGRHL
T6 sequence (O75023 24-458 limits assumed): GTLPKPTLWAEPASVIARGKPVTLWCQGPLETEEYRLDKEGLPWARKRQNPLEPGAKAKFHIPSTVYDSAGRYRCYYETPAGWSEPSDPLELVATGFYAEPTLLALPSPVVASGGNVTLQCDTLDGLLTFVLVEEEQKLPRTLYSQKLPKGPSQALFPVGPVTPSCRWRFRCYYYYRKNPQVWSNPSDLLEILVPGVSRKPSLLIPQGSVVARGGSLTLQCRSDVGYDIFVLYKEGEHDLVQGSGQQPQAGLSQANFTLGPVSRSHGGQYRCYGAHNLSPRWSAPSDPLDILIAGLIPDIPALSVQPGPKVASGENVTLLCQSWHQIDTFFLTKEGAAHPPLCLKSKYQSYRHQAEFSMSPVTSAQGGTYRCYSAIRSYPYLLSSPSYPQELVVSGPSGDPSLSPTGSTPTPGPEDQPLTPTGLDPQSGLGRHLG
T4 sequence (Q8NHJ6 27-118): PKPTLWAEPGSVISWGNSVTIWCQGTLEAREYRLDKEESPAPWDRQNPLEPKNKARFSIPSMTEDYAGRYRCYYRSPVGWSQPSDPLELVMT
T1 sequence (Q8NHL6 24-458 limits assumed): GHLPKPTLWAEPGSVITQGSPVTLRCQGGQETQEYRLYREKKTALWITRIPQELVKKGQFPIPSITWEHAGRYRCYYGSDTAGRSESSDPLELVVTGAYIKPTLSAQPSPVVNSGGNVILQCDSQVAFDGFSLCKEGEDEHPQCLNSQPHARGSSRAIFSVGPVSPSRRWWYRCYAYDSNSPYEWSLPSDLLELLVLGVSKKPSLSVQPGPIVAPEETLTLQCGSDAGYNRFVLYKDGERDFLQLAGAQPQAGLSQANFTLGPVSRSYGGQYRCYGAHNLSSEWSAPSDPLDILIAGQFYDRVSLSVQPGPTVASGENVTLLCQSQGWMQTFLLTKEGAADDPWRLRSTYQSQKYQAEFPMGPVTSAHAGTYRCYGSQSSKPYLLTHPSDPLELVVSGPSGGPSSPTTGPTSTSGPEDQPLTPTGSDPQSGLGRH
T5 sequence (fusion chain, as listed by the source): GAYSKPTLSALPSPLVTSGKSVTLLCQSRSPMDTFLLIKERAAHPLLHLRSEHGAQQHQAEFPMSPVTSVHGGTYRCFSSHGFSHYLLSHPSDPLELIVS
T3 sequence (fusion chain, as listed by the source): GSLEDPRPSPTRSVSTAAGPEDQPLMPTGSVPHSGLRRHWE
T7 sequence (O75022 24-443 limits assumed): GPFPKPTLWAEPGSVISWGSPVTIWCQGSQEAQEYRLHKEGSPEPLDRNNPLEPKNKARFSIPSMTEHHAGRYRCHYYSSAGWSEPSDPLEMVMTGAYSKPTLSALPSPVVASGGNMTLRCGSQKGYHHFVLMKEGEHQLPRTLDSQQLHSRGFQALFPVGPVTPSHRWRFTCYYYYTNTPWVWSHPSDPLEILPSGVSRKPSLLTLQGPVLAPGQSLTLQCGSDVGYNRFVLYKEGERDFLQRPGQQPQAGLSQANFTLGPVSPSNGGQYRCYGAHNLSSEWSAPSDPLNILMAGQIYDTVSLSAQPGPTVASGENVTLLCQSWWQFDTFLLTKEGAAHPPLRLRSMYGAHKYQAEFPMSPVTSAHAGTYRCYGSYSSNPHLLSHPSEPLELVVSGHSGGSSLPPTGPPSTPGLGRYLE
T2 sequence (Q8NHJ6 119-259): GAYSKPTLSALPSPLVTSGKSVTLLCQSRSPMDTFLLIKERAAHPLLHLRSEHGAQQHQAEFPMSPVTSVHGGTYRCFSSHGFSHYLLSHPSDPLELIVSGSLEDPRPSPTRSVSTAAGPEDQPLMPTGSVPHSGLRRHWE
Chain of D2-SR-M16(210-259) (chain, as listed by the source): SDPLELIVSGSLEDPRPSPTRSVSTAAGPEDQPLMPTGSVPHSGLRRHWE

binding result [3]: binds
binding result [4]: no binding
binding result [5]: no binding
EC50 [19]: 0.0097 µg/mL
binding result [20]: no binding (tested: 1000 ng/ml)
binding result [21]: no binding (tested: 1000 ng/ml)
binding result [22]: binds
binding result [7]: binds
EC50 [10]: 0.0647 nM
B3: anti-LILRB4 rabbit monoclonal antibody #216-2 (antibody, V domains shown)
VH: EQSLKESGGRLVTPGTPLTLTCTVSGIDLSSYAMTWVRQVPGKGLEYIGFINIVGIAGYATWAKGRFTISKTSTTVDLKVTSPTTEDTATYFCARNWIRLDLWGQGTLVTVSS
VL: ELVMTQTPASVSAAVGGTVTISCQSSESLYKKNYLSWFQQKPGQPPKLLIYEASKLASGVPSRFSGSGSGTQFTLTISDVQCDDAASYYCLGDYTNGRDTTFGGGTEVEIK

EC50 [23]: 0.0115 µg/mL
EC50 [10]: 0.0767 nM
B4: anti-LILRB4 rabbit monoclonal antibody #6 (antibody, V domains shown)
VH: QSVKESGGRLVTPGTPLTLTCTASGFSLSTYYIDWVRQAPGRGLEYIGVINPGGSAVYATWAKGRFTISRTSTTVDLKMTSLTTEDTATYFCARGWSRGDLWGQGTLVTISS
VL: ELDMTQTPSPVSAAVGGTVTIKCQSSQNVYDDDTLSWYQQKPGQPPKLLIYDASKLASGVPSRFKGSGSGTQFTLTISGVQCDDAATYYCLGVFHDAADNAFGGGTELEIK
notes: Rabbit mAb

EC50 [32]: 0.02 µg/mL
EC50 [10]: 0.134 nM
B7: anti-LILRB4 rabbit monoclonal antibody #71-1 (antibody, V domains shown)
VH: QSVEESGGGLVKPGASLTLTCTASGFSFSSSYHMCWVRQAPGKGLEWIGCIATGYGSTYYASWAKGRFTISKTSSTTVTLQVPSLTAADTATCFCARGYYRYTSDSYGYFDLWGPGTLVTISS
VL: ELDLTQTASPVSAAVGGTVTVNCQASQSISSGYLSWYQQKPGQPPKLLIYYASRLASGVPSRFSGSGSGTEYTLTISGVQCDDAATYYCLYVSYSGTTTDNAFGGGTDVEIK
notes: Rabbit mAb

The next lines start with the binder.

B1: anti-LILRB4 rabbit monoclonal antibody #139 (antibody, V domains shown)
VH: EQSLEESGGRLVTPGTPLTLTCTVSGFSLNSYAMAWVRQAPGKGLEWIGIIGLSTMTYYASWVNGRFTISKTSTTVDLKMTSLTTEDTATYFCVRNDVYWAFNLWGQGTLVTVSS
VL: ELDLTQTPSSVSAGVGGTVSISCQSSESVVNNHALSWYQQKPGQPPKLLIYKASTLASGVPSRFSGSGSGAQFTLTISGVQCDDAATYYCQGGFYSGISDYPFGGGTEVEIK
binding result [1]: no binding
EC50 (read off the curve) [2]: ~0.06 µg/mL
binding result [3]: no binding
binding result [4]: no binding
binding result [5]: binds
binding result [6]: no binding (tested: 1000 ng/ml)
binding result [7]: binds
binding result [8]: binds
EC50 [9]: 0.0125 µg/mL
EC50 [10]: 0.0832 nM

B2: anti-LILRB4 rabbit monoclonal antibody #8 (antibody, V domains shown)
VH: QSVKESGGGLVTPGGTLTLTCTASGFSLISYDMYWVRQAPGKGLEYIGIIYSDGYTFYATGAKGRITISRTSTTVDLKITSPTTEDTATYFCATNAFALWGQGTLVTISS
VL: ELDLTQTPSSVSAAVGGTVTISCQSSQNVYNNNWLVWLQQKPGQPPKRLIYTASSLASGVPSRFAGSGSATQFTLTISDLECGDAATYYCAGGYSGPIYTFGGGTEVEIK
notes: also called mAb 8
binding result [1]: no binding
binding result [11]: no binding
binding result [12]: no binding
binding result [13]: no binding
binding result [3]: binds
binding result [4]: no binding
binding result [5]: no binding
EC50 [14]: 0.00943 µg/mL
EC50 (read off the curve) [15]: ~0.03 µg/mL
EC50 (read off the curve) [16]: ~0.03 µg/mL
binding result [17]: no binding (tested: 1000 ng/ml)
binding result [18]: no binding (tested: 1000 ng/ml)
EC50 [10]: 0.0629 nM

B5: anti-LILRB4 rabbit monoclonal antibody #128-3 (antibody, V domains shown)
VH: EQSLEESGGDLVTPGASLTLTCKASGIDFSNHYYIYWVRQAPGKGLEWIGCIFSGDSASTYYASWAKGRFTISKSSSPTVTLQMTSLTAADTATYFCARGMSTNDWASDLWGPGTMVTVSS
VL: ELVMTQTPASVSAAVGGTVTINCQASESINSIYLAWYQQKPGQRPKLLIYRASTLASGVSSRFKGSASGTGFTLTISDLECADAATYYCQQSYDWGDVENTFGGGTEVEIK
binding result [1]: no binding
binding result [11]: no binding
binding result [12]: no binding
binding result [13]: no binding
binding result [3]: no binding
binding result [5]: no binding
EC50 [24]: 0.0276 µg/mL
EC50 (read off the curve) [25]: ~0.01 µg/mL
EC50 [10]: 0.184 nM
EC50 (read off the curve) [26]: ~0.02 µg/mL
EC50 (read off the curve) [27]: ~0.02 µg/mL

B6: anti-LILRB mAb C39 (antibody, V domains shown)
VH: EVQLVESGGGLVQPGGSLKLSCAASGFTFSSYGMSWVRQTPDKRLELVATIDSNGGGTYYPDSVKGRFTISRDNAKNTLYLQMSSLKSEDTAMHYCARDGGGSYGYYYAMDYWGQGTSVTVSS
VL: DIVMSQSPSSLAVSAGEKVTMRCKSSQSLLNSRTRKSYLAWYQQKSGQSPKLLIYWASTRESGVPDRFTGSGSGTDFTLTISSVQAEDLAVYYCKQSYNLPWTFGGGTKLEIK
notes: mAb against LILRB2
binding result [28]: binds
binding result [29]: binds
binding result [30]: binds
% of cells in the positive gate [31]: 18.7%

Reference: patent publication US20200079851A1 (University of Texas, published 2020)
